In publication PMC9352680, “A comprehensive thermodynamic model for RNA binding by the Saccharomyces cerevisiae Pumilio protein PUF4”:

T1: PUF4 RNA-binding domain (Saccharomyces cerevisiae, UniProt P25339 537-888)
T1 sequence: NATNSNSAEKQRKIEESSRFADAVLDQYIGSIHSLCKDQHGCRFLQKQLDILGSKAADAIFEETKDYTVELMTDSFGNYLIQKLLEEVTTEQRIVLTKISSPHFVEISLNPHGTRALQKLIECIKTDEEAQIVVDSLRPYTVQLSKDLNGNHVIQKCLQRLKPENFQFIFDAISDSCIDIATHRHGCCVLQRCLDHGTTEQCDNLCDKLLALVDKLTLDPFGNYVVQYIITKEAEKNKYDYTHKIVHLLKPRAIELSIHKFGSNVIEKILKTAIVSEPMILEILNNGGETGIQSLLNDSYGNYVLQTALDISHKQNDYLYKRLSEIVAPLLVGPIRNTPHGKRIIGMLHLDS


What follows are binders tested against T1, PUF4 RNA-binding domain (assay: Mg; RNA-MaP; 20 mM Na-HEPES pH 7.4, 30 mM KOAc, 0.75 mM MgCl2, 0.1% Tween-20, 5% glycerol, 0.1 mg/mL BSA, 2 mM DTT; 25 C; 0.0125-409.6 nM protein). Settings: tags: N-His6-TEV cleaved; C-SNAP kept, Cy3B-labelled; label: tethered on chip by stalled RNA polymerase.
UCUCUUUGUAUCGUAUCUCUU (ssRNA) [Ic_S1_P4E.1_K4.1_C4.1_H4.1_A4.1_[A6C]_[T7G]_F4.1_T4.1] showed a Kd of 12.3 nM. UCUCUUCUUGUAUUAUUAAAUCUCUU (ssRNA) [Id_ii_S1_P5E.2_K5.1_C5.2_H5.1_A5.1_F5.1_T5.2_[T11A]] showed a Kd of 9.5 nM. Binder UCUCUUGUUAUAUUAUUACGUCUCUU (ssRNA) [Id_ii_S1_P5E.3_K5.2_C5.2_[C-2G]_H5.2_A5.1_F5.1_T5.2_[T11C]_[A12G]] has a Kd of 22 nM. UCUCUUCGUGUAUUAUUAACUCUCUU (ssRNA) [Id_ii_S1_P5E.2_K5.1_C5.2_[T-1G]_H5.1_A5.1_F5.1_T5.2_[T11A]_[A12C]] was tested, and the Kd was 12.5 nM. UCUCUUCAUGUAUUAUUAGCUCUCUU (ssRNA) [Id_ii_S1_P5E.2_K5.1_C5.2_[T-1A]_H5.1_A5.1_F5.1_T5.2_[T11G]_[A12C]] gave a Kd of 3.39 nM. For UCUCUUCGUGUAUUAUUAUUUCUCUU (ssRNA) [Id_ii_S1_P5E.2_K5.1_C5.2_[T-1G]_H5.1_A5.1_F5.1_T5.2_[A12T]], the Kd was 7.48 nM. With UCUCUUUGUAUAUUAUUAAUUCUCUU (ssRNA) [Id_ii_S1_P5E.3_K5.2_C5.2_[C-2T]_[T-1G]_H5.2_A5.1_F5.1_T5.2_[T11A]_[A12T]] the Kd was 0.615 nM. Binder UCUCUUUCUAUAUUAUUACAUCUCUU (ssRNA) [Id_ii_S1_P5E.3_K5.2_C5.2_[C-2T]_[T-1C]_H5.2_A5.1_F5.1_T5.2_[T11C]] has a Kd of 630 nM. For UCUCUUUCUAUAUUAUUACGUCUCUU (ssRNA) [Id_ii_S1_P5E.3_K5.2_C5.2_[C-2T]_[T-1C]_H5.2_A5.1_F5.1_T5.2_[T11C]_[A12G]], the Kd was 494 nM. UCUCUUCAUGUAUUAUUAUCUCUCUU (ssRNA) [Id_ii_S1_P5E.2_K5.1_C5.2_[T-1A]_H5.1_A5.1_F5.1_T5.2_[A12C]] gave a Kd of 7.59 nM. In the case of UCUCUUGUUAUAUUAUUAAAUCUCUU (ssRNA) [Id_ii_S1_P5E.3_K5.2_C5.2_[C-2G]_H5.2_A5.1_F5.1_T5.2_[T11A]], the Kd is reported as 17.7 nM. Work on UCUCUUCCUGUAUUAUUAAGUCUCUU (ssRNA) [Id_ii_S1_P5E.2_K5.1_C5.2_[T-1C]_H5.1_A5.1_F5.1_T5.2_[T11A]_[A12G]] yielded a Kd of 14.6 nM. UCUCUUGUUAUAUUAUUAGUUCUCUU (ssRNA) [Id_ii_S1_P5E.3_K5.2_C5.2_[C-2G]_H5.2_A5.1_F5.1_T5.2_[T11G]_[A12T]] gave a Kd of 15.3 nM. UCUCUUCGUGUAUUAUUAAUUCUCUU (ssRNA) [Id_ii_S1_P5E.2_K5.1_C5.2_[T-1G]_H5.1_A5.1_F5.1_T5.2_[T11A]_[A12T]] gave a Kd of 10.1 nM. Work on UCUCUUCCUGUAUUAUUAUGUCUCUU (ssRNA) [Id_ii_S1_P5E.2_K5.1_C5.2_[T-1C]_H5.1_A5.1_F5.1_T5.2_[A12G]] yielded a Kd of 6.12 nM. For UCUCUUUGUAUGAUAUCUCUU (ssRNA) [Ib_S1_P4E.1_K4.1_C4.1_H4.1_A4.1_[A6G]_[T7A]_F4.1_T4.1], the Kd was 4.57 nM. For UCUCUUCUUGUAUUAUUAUUUCUCUU (ssRNA) [Id_ii_S1_P5E.2_K5.1_C5.2_H5.1_A5.1_F5.1_T5.2_[A12T]], the Kd was 4.09 nM. UCUCUUCUUGUAUUAUUAGUUCUCUU (ssRNA) [Id_ii_S1_P5E.2_K5.1_C5.2_H5.1_A5.1_F5.1_T5.2_[T11G]_[A12T]] showed a Kd of 3.87 nM. Work on UCUCUUUCUAUAUUAUUAAGUCUCUU (ssRNA) [Id_ii_S1_P5E.3_K5.2_C5.2_[C-2T]_[T-1C]_H5.2_A5.1_F5.1_T5.2_[T11A]_[A12G]] yielded a Kd of 582 nM. UCUCUUAUUGUAUUAUUAUCUCUCUU (ssRNA) [Id_ii_S1_P5E.2_K5.1_C5.2_[C-2A]_H5.1_A5.1_F5.1_T5.2_[A12C]] was tested, and the Kd was 6.61 nM. Binder UCUCUUUCUAUAUUAUUAAUUCUCUU (ssRNA) [Id_ii_S1_P5E.3_K5.2_C5.2_[C-2T]_[T-1C]_H5.2_A5.1_F5.1_T5.2_[T11A]_[A12T]] has a Kd of 615 nM. UCUCUUCUUGUAUUAUUAACUCUCUU (ssRNA) [Id_ii_S1_P5E.2_K5.1_C5.2_H5.1_A5.1_F5.1_T5.2_[T11A]_[A12C]] showed a Kd of 5.25 nM. UCUCUUUGUAUCCUAUCUCUU (ssRNA) [Ic_S1_P4E.1_K4.1_C4.1_H4.1_A4.1_[A6C]_[T7C]_F4.1_T4.1] showed a Kd of 4.4 nM. UCUCUUCAUGUAUUAUUAAUUCUCUU (ssRNA) [Id_ii_S1_P5E.2_K5.1_C5.2_[T-1A]_H5.1_A5.1_F5.1_T5.2_[T11A]_[A12T]] gave a Kd of 7.68 nM. Work on UCUCUUUCUAUAUUAUUAACUCUCUU (ssRNA) [Id_ii_S1_P5E.3_K5.2_C5.2_[C-2T]_[T-1C]_H5.2_A5.1_F5.1_T5.2_[T11A]_[A12C]] yielded a Kd of 581 nM. For UCUCUUUCUAUAUUAUUACUUCUCUU (ssRNA) [Id_ii_S1_P5E.3_K5.2_C5.2_[C-2T]_[T-1C]_H5.2_A5.1_F5.1_T5.2_[T11C]_[A12T]], the Kd was 390 nM. Binder UCUCUUCUUGUAUUAUUAGCUCUCUU (ssRNA) [Id_ii_S1_P5E.2_K5.1_C5.2_H5.1_A5.1_F5.1_T5.2_[T11G]_[A12C]] has a Kd of 2.47 nM. In the case of UCUCUUGCUAUAUUAUUAUUUCUCUU (ssRNA) [Id_ii_S1_P5E.3_K5.2_C5.2_[C-2G]_[T-1C]_H5.2_A5.1_F5.1_T5.2_[A12T]], the Kd is reported as 391 nM. Binder UCUCUUGCUAUAUUAUUACCUCUCUU (ssRNA) [Id_ii_S1_P5E.3_K5.2_C5.2_[C-2G]_[T-1C]_H5.2_A5.1_F5.1_T5.2_[T11C]_[A12C]] has a Kd of 340 nM. Work on UCUCUUCCUGUAUUAUUAACUCUCUU (ssRNA) [Id_ii_S1_P5E.2_K5.1_C5.2_[T-1C]_H5.1_A5.1_F5.1_T5.2_[T11A]_[A12C]] yielded a Kd of 7.24 nM. Work on UCUCUUCCUGUAUUAUUAUUUCUCUU (ssRNA) [Id_ii_S1_P5E.2_K5.1_C5.2_[T-1C]_H5.1_A5.1_F5.1_T5.2_[A12T]] yielded a Kd of 7.47 nM.
